Measured values: publication PMC8913699, “Overall structure of fully assembled cyanobacterial KaiABC circadian clock complex by an integrated experimental-computational approach” (Communications Biology, 2022)
Blank lines part the entries; values can stand above or below the binder they belong to.

B1: phosphorylation mimic KaiC (S431 substituted with aspartate) from Synechococcus sp. PCC 7942 (natural protein)
chain: MTSAEMTSPNNNSEHQAIAKMRTMIEGFDDISHGGLPIGRSTLVSGTSGTGKTLFSIQFLYNGIIEFDEPGVFVTFEETPQDIIKNARSFGWDLAKLVDEGKLFILDASPDPEGQEVVGGFDLSALIERINYAIQKYRARRVSIDSVTSVFQQYDASSVVRRELFRLVARLKQIGATTVMTTERIEEYGPIARYGVEEFVSDNVVILRNVLEGERRRRTLEILKLRGTSHMKGEYPFTITDHGINIFPLGAMRLTQRSSNVRVSSGVVRLDEMCGGGFFKDSIILATGATGTGKTLLVSRFVENACANKERAILFAYEESRAQLLRNAYSWGMDFEEMERQNLLKIVCAYPESAGLEDHLQIIKSEINDFKPARIAIDSLSALARGVSNNAFRQFVIGVTGYAKQEEITGLFTNTSDQFMGAHSITDSHIDTITDTIILLQYVEIRGEMSRAINVFKMRGSWHDKAIREFMISDKGPDIKDSFRNFERIISGSPTRITVDEKSELSRIVRGVQEKGPES
notes: KaiC, Synechococcus sp; PCC 7942, phosphorylation mimic with S431 replaced by aspartate; A 75%-deuterated form (dC) was used in the iCM-SANS sample; Buffer contained 1 mM ATP and 5 mM MgCl2; also called C6 (homohexamer); hC; source: E. coli, purified as a Strep-tagged recombinant protein
B2: KaiA from Synechococcus sp. PCC 7942 (natural protein)
chain: LSQIAICIWVESTAILQDCQRALSADRYQLQVCESGEMLLEYAQTHRDQIDCLILVAANPSFRAVVQQLCFEGVVVPAIVVGDRDSEDPDEPAKEQLYHSAELHLGIHQLEQLPYQVDAALAEFLRLAPVETMADHIMLMGANHDPELSSQQRDLAQRLQERLGYLGVYYKRDPDRFLRNLPAYESQKLHQAMQTSYREIVLSYFSPNSNLNQSIDNFVNMAFFADVPVTKVVEIHMELMDEFAKKLRVEGRSEDILLDYRLTLIDVIAHLCEMYRRSIPRET
notes: KaiA, Synechococcus sp; PCC 7942; Both N- and C-terminal domains were present in the sample, since the study locates the N-terminal domains, so it was probably whole KaiA; Hydrogenated in all samples; also called A2 (homodimer); hA (hydrogenated KaiA); source: E. coli, purified after cleavage of the his-tag

Assays:
[1] = target: the molecule itself; experiment: AUC; sedimentation velocity, Rayleigh interference optics, 60,000 rpm, 30 °C; ternary KaiA-KaiB-KaiC mixture 1.0 mg/mL (KaiA added in excess to SEC-purified B6C6, final 24:12:6); hydrogenated proteins in H2O buffer: 20 mM Tris-HCl pH 8.0, 150 mM NaCl, 5 mM MgCl2, 0.5 mM EDTA, 1 mM DTT, 1 mM ATP
[2] = target: the molecule itself; experiment: AUC-SAXS; KaiA alone, 1.0 mg/mL, 25 °C; SV-AUC at 60,000 rpm with laboratory SAXS (NANOPIX); experimental profile compared with the crystal dimer and with simulated dimers
[3] = target: T1, B6C6 complex (KaiB-KaiC complex formed beforehand and isolated by SEC) (Synechococcus sp. PCC 7942, UniProt Q79PF5 1-102; Q79PF4 1-519, S431 substituted with an aspartate residue); experiment: AUC; sedimentation velocity, Rayleigh interference optics, 60,000 rpm, 30 °C; ternary KaiA-KaiB-KaiC mixture 1.0 mg/mL (KaiA added in excess to SEC-purified B6C6, final 24:12:6); hydrogenated proteins in H2O buffer: 20 mM Tris-HCl pH 8.0, 150 mM NaCl, 5 mM MgCl2, 0.5 mM EDTA, 1 mM DTT, 1 mM ATP; settings: both partners purified
T1 construct: KaiB, Synechococcus sp; PCC 7942, as m2; KaiC, Synechococcus sp; PCC 7942, phosphorylation mimic with S431 replaced by aspartate, as m3; Oversaturating KaiA was added to this purified complex; the final molar ratio [KaiA]:[KaiB]:[KaiC] was 24:12:6; In the iCM-SANS sample both chains were 75%-deuterated; also called BC complex; B6C6 subcomplex; source: E. coli proteins, purified; KaiB and KaiC …
T1 sequence 1: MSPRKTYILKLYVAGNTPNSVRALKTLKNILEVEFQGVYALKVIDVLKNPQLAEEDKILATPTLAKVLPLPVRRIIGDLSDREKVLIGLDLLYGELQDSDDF
T1 sequence 2: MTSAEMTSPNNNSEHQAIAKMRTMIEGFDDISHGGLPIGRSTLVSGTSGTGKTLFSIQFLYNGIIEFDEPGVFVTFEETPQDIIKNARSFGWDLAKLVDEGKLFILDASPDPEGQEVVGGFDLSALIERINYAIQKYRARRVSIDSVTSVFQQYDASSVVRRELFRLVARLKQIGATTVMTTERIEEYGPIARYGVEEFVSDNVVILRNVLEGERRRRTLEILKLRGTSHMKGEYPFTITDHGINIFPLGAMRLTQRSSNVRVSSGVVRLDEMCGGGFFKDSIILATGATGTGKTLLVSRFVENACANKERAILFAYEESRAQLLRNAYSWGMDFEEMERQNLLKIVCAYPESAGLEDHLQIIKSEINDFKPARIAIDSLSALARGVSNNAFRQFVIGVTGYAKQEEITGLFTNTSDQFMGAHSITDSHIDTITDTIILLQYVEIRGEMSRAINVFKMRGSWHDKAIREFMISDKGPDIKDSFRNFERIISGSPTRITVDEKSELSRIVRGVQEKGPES

[4] = target: B1; experiment: SEC; KaiB and KaiC mixed 9:6 in 20 mM Tris-HCl pH 8.0, 150 mM NaCl, 5 mM MgCl2, 0.5 mM EDTA, 1 mM DTT, 1 mM ATP at 10 °C; complex isolated with SEC; settings: both partners purified
[5] = target: B2; experiment: AUC; sedimentation velocity, Rayleigh interference optics, 60,000 rpm, 30 °C; ternary KaiA-KaiB-KaiC mixture 1.0 mg/mL (KaiA added in excess to SEC-purified B6C6, final 24:12:6); hydrogenated proteins in H2O buffer: 20 mM Tris-HCl pH 8.0, 150 mM NaCl, 5 mM MgCl2, 0.5 mM EDTA, 1 mM DTT, 1 mM ATP; settings: both partners purified

Binder: B1
stoichiometry N [1]: 6

Binder: B2
stoichiometry N [2]: 2
stoichiometry N [3]: 12 KaiA protomers per B6C6 complex

binding result [4]: binds
binding result [5]: binds
B3: KaiB from Synechococcus sp. PCC 7942 (natural protein, UniProt Q79PF5 1-102, looked up)
chain: MSPRKTYILKLYVAGNTPNSVRALKTLKNILEVEFQGVYALKVIDVLKNPQLAEEDKILATPTLAKVLPLPVRRIIGDLSDREKVLIGLDLLYGELQDSDDF
notes: KaiB, Synechococcus sp; PCC 7942; A 75%-deuterated form (dB) was used in the iCM-SANS sample; also called B4 (homotetramer); hB; source: E. coli, purified after cleavage of the GST-tag
